According to patent US20190083645A1 (AbbVie / Abbott, published 2019):

T1: human CLDN9 (human, UniProt O95484 1-217)
T1 sequence: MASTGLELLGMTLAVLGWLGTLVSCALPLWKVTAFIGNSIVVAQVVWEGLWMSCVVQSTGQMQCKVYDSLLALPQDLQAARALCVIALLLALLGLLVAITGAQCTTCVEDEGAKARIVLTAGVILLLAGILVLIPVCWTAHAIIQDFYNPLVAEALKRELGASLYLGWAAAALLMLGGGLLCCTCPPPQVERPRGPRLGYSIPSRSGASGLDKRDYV

T2: human CLDN4 (human, UniProt O14493 1-209)
T2 sequence (looked up): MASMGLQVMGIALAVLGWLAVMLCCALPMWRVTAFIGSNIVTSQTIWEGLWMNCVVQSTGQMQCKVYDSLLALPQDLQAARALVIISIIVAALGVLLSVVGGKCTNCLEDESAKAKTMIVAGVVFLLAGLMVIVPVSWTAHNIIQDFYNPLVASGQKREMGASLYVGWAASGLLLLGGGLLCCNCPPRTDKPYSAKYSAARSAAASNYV

T3: human CLDN6 (human, UniProt P56747 1-220)
T3 sequence: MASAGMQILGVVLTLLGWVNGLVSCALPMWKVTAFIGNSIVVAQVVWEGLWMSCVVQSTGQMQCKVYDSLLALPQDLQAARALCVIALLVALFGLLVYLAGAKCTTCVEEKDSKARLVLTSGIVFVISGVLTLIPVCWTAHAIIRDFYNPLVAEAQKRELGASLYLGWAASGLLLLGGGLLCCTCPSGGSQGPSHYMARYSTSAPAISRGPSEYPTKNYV


Columns and labels:
Assay in all cases: cell-based or functional assay
[1] = molecular target: T1, human CLDN9
[2] = molecular target: T2, human CLDN4
[3] = molecular target: T3, human CLDN6

| Binder | apparent IC50, killing of HEK293T cells overexpressing hCLDN9 with anti-mouse Fab-saporin, CellTiter-Glo [1] | apparent IC50, killing of HEK293T cells overexpressing hCLDN4 with anti-mouse Fab-saporin, CellTiter-Glo [2] | apparent IC50, killing of HEK293T cells overexpressing hCLDN6 with anti-mouse Fab-saporin, CellTiter-Glo [3] |
| --- | --- | --- | --- |
| SC27.103 (antibody, V domains shown) VH: EVHLQQSGPELVKPGGSMKISCKASGYSFTGYTMNWVKQSHGKNLEWIGLFNPYNGGTSYNQKFKGKATLTVDKSSSTAYMELLSLTSEDSAVYYCARCYRYDGLDYWGQGTTLTVSS VL: QIVLTQSPAIMSASLGERVTMTCTASSSVSSSYLHWYQQKPGSSPTLWIYRTSDLASGVPARFSGSGSGTSYSLTISSMEAEDAATYYCHQYHRSPWTFGGGTRLEIK | 466 nM | > 2000 nM | 57.7 nM |
| SC27.108 (antibody, V domains shown) VH: QVQMQQSGAELVRPGTSVKVSCKASGYAFTNYLIEWVKQRPGQGLEWIGLINPGSGGTNYNEKFKGKATLTADKSSTTAYMQLSSLTSDDSAVYFCARRSPLGSWIYYAYDGVAYWGQGTLVTVSA VL: EIVLTQSPALMAASPGEKVTITCSVSSSISSSNLHWYQQKSGTSPKLWIYGTSNLASGVPVRFSGSGSGTSYSLTISNMEAEDAATYYCQQWSSYPHTFGGGTKLEIK | > 2000 nM | > 2000 nM | 102 nM |
| SC27.105 (antibody, V domains shown) VH: EVQLQQSGPELVKPGASVKISCKASGYSFTGYYMNWVKQSPEKSLEWIGEINPSTGSTTYNQKFKAKATLTVDKSSSTAYMQLKSLTSEDSAVYYCARRDYYYGSGFYAMDYWGQGTSVTVSS VL: DVQMTQSPSSLSASLGERVSLTCQASQSVSNNLNWYQQTPGKAPRLLIYGASKLEDGVSSRFSGTGYGTDFTFTISSLEEEDVATYFCLQHRYLWTFGGGTKLEIK | > 2000 nM | > 2000 nM | 235 nM |
| SC27.201 (antibody, V domains shown) VL: DIQMTQSSSSFSVSLGDRVTITCKASEDIYNRLAWYQQKPGNAPRLLISGATSLEAGVPSGFSGSGSGKDYTLSITSLQTEDVATYYCQQYWSTPPTFGGGTKLELK V domain: EVQLQQSGPELVKPGASVKISCKTSGYTFTENIRHWVKQSRGKSLEWIGTINPNNGETRYNQKFKGKATLTVDKSSSTAYMELRSLTSEDSAVYYCTRGITKSPYGMDYWGQGTSITVSS | 155 nM | 69.7 nM | 48.2 nM |
| SC27.104 (antibody, V domains shown) VH: EVQLQQSGPELVKPGASVKISCKTSGYTFTEYTVHWVKQSHGKSLEWIGGVYPKNGDTTYNQKFRGKATLTVDKSSNTAYMELRSLTSEDSAVYYCTGKDGYDGFAYWGQGTLVTVSA VL: DIQMTQSSSSFSVSLGDRVTITCKASEDIYNRLAWYQQKPGNAPRLLISGATSLETGVPSRFSGSGSGKDYTLSITSLQTEDVATYYCQQYWSNPPTFGGGTKLEIK | > 2000 nM | 969 nM | 284 nM |
| SC27.204 (antibody, V domains shown) VH: EVKVLESGGGLVQPGGSLKLSCAASGFDFSRYWMSWVRQAPGKGLEWIGEINPDSSTINYTPSLKAKFIISRDNAKNTLYLQMSKVRSEDTALYYCTGPAYWGQGTLVTVSA VL: DIVMTQSQKFMSTSVGDRVSVACKAGQNVGTSVAWYQQKPGHSPKSLIYSASYRYSGVPNRFTGSGSGTDFTLTISNVQSEDLADYFCQQYITYPYTFGGGTKLEII | 16.9 nM | > 2000 nM | 25.2 nM |
